{"source": "paper PMC8371082", "about": "“En route to dynamic life processes by SNARE-mediated fusion of polymer and hybrid membranes” (Nature Communications, 2021)", "biological_target": "T1, Syntaxin-1A (183-288) (Rattus norvegicus, UniProt P32851 183-288)", "T1 construct": "Syntaxin-1A, Rattus norvegicus, residues 183-288", "T1 sequence (P32851 183-288)": "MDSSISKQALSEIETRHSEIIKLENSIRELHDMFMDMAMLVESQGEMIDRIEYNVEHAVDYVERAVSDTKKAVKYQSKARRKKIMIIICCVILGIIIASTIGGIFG", "assay": "complex assembly from purified proteins, isolated by ion-exchange chromatography; truncated syb-2, syntaxin-1A and SNAP-25a mixed at 1.5:1:1 molar ratio, incubated at 4 °C overnight, complex purified by ion-exchange chromatography in the presence of CHAPS", "details": "both partners purified", "data": [{"binder": "NVDKVLERDQKLSELDDRADALQAGASQFETSAAKLKRKYWWKNLKMM (domain or fragment, Rattus norvegicus, UniProt P63045 49-96, looked up, Synaptobrevin-2 (VAMP2), Rattus norvegicus, residues 49-96; also called truncated syb-2; C-terminal syb fragment)", "note": "[Truncated synaptobrevin-2 (49-96)]", "values": [{"measurement": "binding result", "result": "binds"}]}]}
